# Target: TGFβ1 (Homo sapiens, UniProt P01137)
# Sequence (P01137 279-390): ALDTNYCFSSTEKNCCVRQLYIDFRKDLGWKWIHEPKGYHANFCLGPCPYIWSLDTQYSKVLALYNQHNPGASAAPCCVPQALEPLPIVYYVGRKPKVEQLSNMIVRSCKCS
binder,measurement,value
KRIWFIPRSSWY [KRIWFIPRSSWY peptide],Kd,0.0104 µM
